According to US20240287547, “GENETIC MODIFICATION” (Peter Biotherapeutics, Inc., published 2024):

Columns and labels:
Experiment in all cases: cell_activity; U937 RT-PCR; also edits KRAS in HEK293
[1] = target: pb76 DLRRR (7-zinc finger array + triple R element) (artificial)
Description: (§1) As described above, each plasmid, pb74, pb75, and pb76 was introduced into U937 cells by electroporation. A “no DNA” transfection was used as control. […] post electroporation, cells transfected with these plasmids were detached and collected. Total RNAs from each condition were then extracted by using Trizol reagent. Five hundred nanograms of total RNA was then converted into DNA by reverse transcription (RT) reaction, followed by PCR using a primer set of Pop133 (SEQ ID. NO. 228) and Pop134 (SEQ ID. NO. 229). Three independent experiments were conducted. KRAS mRNA expression was quantitated by calculations of amplification band intensity of RT-PCR KRAS normalized by corresponding that of Ref-BMG using Bio-Rad Imagelab software. Introduction of pb74 (DLR), ob75 (DLRR), and pb76 (DLRRR) inhibit KRAS gene expression more than 50%.

[2] = target: pb75 DLRR (7-zinc finger array + double R element) (artificial)
Description: as §1

[3] = target: pb74 DLR (7-zinc finger array + single R element) (artificial)
Description: as §1

Measured: activity

Chain of pb75 DLRR (7-zinc finger array + double R element) (artificial) (chain, as listed by the source): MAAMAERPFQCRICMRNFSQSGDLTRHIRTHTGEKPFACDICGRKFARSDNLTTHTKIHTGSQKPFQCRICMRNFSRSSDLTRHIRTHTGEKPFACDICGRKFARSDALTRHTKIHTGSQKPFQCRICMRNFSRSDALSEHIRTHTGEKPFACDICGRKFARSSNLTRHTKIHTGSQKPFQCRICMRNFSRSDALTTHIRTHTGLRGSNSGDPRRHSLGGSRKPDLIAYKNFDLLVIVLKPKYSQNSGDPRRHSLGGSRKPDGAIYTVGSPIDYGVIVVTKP
Chain of pb76 DLRRR (7-zinc finger array + triple R element) (artificial) (chain, as listed by the source): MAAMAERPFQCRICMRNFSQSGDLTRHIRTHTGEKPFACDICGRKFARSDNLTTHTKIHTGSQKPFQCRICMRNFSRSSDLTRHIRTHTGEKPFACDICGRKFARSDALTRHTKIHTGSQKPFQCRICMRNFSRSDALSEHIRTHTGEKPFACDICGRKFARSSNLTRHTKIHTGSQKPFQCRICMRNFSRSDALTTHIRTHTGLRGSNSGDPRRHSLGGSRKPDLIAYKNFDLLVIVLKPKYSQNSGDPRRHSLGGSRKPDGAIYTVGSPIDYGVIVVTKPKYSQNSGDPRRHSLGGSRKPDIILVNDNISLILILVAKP
Chain of pb74 DLR (7-zinc finger array + single R element) (artificial) (chain, as listed by the source): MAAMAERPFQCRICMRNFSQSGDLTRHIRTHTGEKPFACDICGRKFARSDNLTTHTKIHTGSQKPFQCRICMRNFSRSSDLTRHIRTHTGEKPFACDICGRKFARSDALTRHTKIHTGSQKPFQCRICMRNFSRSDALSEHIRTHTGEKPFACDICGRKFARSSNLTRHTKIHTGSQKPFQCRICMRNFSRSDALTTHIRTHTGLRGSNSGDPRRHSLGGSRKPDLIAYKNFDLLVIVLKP

B1: KRAS exon 1 site (dsDNA)
DNA 1: TTGGAGCTGGTGGCGTAGGCA
DNA 2: TGCCTACGCCACCAGCTCCAA
> 50 % inhibition of KRAS mRNA: all assays above
